This assay deals with QatB (Escherichia coli NCTC9009). As to the kind of experiment: SEC-MALS. In general terms: In gel filtration, larger molecules generally elute earlier.

By stoichiometry N is commonly meant the number of molecules, sites or subunits per partner or assembly.

Regarding QatC (enzyme), the stoichiometry N came out at 1.

In turn, QatD (enzyme) yielded a stoichiometry N of 1.

For the origin of these results see paper PMC13639016.
